How the values were obtained:
[1] = target: T1, hCdc5 DNA-binding domain (aa 1-500) (Homo sapiens, UniProt Q99459 SEQ:1-500); test: EMSA; single-stranded sense; conditions: tags: His6 fusion (pET29c(+), E. coli BL21(DE3), Ni-NTA); chain copies: forms homodimers by glutaraldehyde cross-linking in vitro
[2] = target: T1, hCdc5 DNA-binding domain (aa 1-500); test: EMSA; text: abolished; conditions: tags: His6 fusion (pET29c(+), E. coli BL21(DE3), Ni-NTA); chain copies: forms homodimers by glutaraldehyde cross-linking in vitro; label: 32P
Procedure: Labeled oligonucleotides bearing substitutions in each of the bases comprising the consensus sequence were incubated with recombinant His₆-hCdc5 and gel shift assays were carried out as described above to determine the binding affinities for the mutated sequences. […] Substitutions at any other position abolished DNA-protein binding implicating these residues as critical for the interaction.

[3] = target: T1, hCdc5 DNA-binding domain (aa 1-500); test: EMSA; amino terminus of hCdc5; conditions: tags: His6 fusion (pET29c(+), E. coli BL21(DE3), Ni-NTA); chain copies: forms homodimers by glutaraldehyde cross-linking in vitro
Text: (§1) To determine whether hCdc5 interacts with specific genomic sequences through direct DNA binding, we first surveyed the 12 genomic sequences (totaling ˜36,200 bp) identified by binding selection in yeast for the synthetic consensus binding sequence identified by cyclic amplification and selection in the example above. An exact match was not found, although this was not surprising as the likelihood of finding a unique 12 bp sequence is 6×10⁻⁸, and is predicted to occur by chance ˜180 times in the human genome. We then used the information obtained by scanning mutagenesis to look for sites containing the core “ANCA” motif flanked by palindromes within the genomic clones. […] Complementary oligonucleotides representing the sequences in Table 2 flanked by the non-random oligo flanking sequences used in the oligonucleotide selection experiments described above were used for the gel shift assays. Two of these active binding sites were found in the two clones which represented overlapping sequences from the same region of the genome (clones 6 and 30). All 3 sites shared features of the consensus binding sequence: a core “ANCA” motif, AT-rich flanking palindromes, and a distance between core and palindromes of no more than 3 bp.

[4] = target: T1, hCdc5 DNA-binding domain (aa 1-500); test: EMSA; single-stranded antisense; conditions: tags: His6 fusion (pET29c(+), E. coli BL21(DE3), Ni-NTA); chain copies: forms homodimers by glutaraldehyde cross-linking in vitro
[5] = target: T1, hCdc5 DNA-binding domain (aa 1-500); test: EMSA; data not shown; protein construct not specified; conditions: tags: His6 fusion (pET29c(+), E. coli BL21(DE3), Ni-NTA); chain copies: forms homodimers by glutaraldehyde cross-linking in vitro
[6] = target: hCdc5 W31G W53G W82G mutant (Homo sapiens, UniProt Q99459 SEQ:1-500, W31G,W53G,W82G); test: EMSA; data not shown; conditions: label: 32P
[7] = target: T1, hCdc5 DNA-binding domain (aa 1-500); test: EMSA; 1 nM DNA, 2.5-40 nM protein; 10 mM HEPES pH 7.8, 75 mM KCl, 2.5 mM MgCl2, poly(dI-dC), room temperature; conditions: tags: His6 fusion (pET29c(+), E. coli BL21(DE3), Ni-NTA); chain copies: forms homodimers by glutaraldehyde cross-linking in vitro; label: 32P
[8] = target: T1, hCdc5 DNA-binding domain (aa 1-500); test: EMSA; amino terminus of hCdc5; clones 6 and 30 overlap; clone 6 printed as … in table but SEQ 15 given; conditions: tags: His6 fusion (pET29c(+), E. coli BL21(DE3), Ni-NTA); chain copies: forms homodimers by glutaraldehyde cross-linking in vitro
Text: as §1

T1 sequence (Q99459 1-500): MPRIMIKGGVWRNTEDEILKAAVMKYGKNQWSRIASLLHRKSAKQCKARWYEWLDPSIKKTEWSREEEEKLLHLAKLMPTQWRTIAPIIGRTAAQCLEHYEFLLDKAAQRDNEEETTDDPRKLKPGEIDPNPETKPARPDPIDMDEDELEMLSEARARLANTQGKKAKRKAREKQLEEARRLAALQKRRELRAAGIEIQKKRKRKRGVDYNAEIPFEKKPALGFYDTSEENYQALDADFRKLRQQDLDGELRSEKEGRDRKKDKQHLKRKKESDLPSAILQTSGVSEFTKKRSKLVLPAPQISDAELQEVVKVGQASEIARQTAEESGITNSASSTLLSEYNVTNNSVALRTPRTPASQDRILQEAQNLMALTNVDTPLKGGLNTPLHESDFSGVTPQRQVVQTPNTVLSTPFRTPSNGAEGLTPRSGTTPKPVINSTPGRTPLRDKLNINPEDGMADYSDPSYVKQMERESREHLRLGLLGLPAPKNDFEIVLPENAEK
Chain of hCdc5 W31G W53G W82G mutant (Q99459 1-500 W31G/W53G/W82G): as the sequence (Q99459 1-500) above, with W31G, W53G, W82G counted along it

GATTTAACATAA (ssDNA) [consensus site single-stranded sense]
binding result [1]: no binding

B1: consensus mutant position 9 (dsDNA)
DNA 1: GATTTAACCTAA
DNA 2: TTAGGTTAAATC
binding signal [2]: 0.2 fraction of control

B2: consensus mutant position 8 (dsDNA)
DNA 1: GATTTAATATAA
DNA 2: TTATATTAAATC
binding signal [2]: 0.2 fraction of control

B3: genomic clone 8 site (dsDNA)
DNA 1: CGCTCGAGGGATCCGAATTCAATGAACGAATCAAATTTCTAGAAAGCTTGTCGACGC
DNA 2: GCGTCGACAAGCTTTCTAGAAATTTGATTCGTTCATTGAATTCGGATCCCTCGAGCG
binding result [3]: no binding

B4: consensus mutant position 4 (dsDNA)
DNA 1: GATGTAACATAA
DNA 2: TTATGTTACATC
binding signal [2]: 0.2 fraction of control

TTATGTTAAATC (ssDNA, [NONE]) [consensus site single-stranded antisense]
binding result [4]: no binding

B5: new-palindrome mutant GATGTAACATAC (dsDNA)
DNA 1: GATGTAACATAC
DNA 2: GTATGTTACATC
binding result [5]: no binding

B6: genomic clone 12 site 1 (dsDNA)
DNA 1: CGCTCGAGGGATCCGAATTCAAAGGGGAACACTTTTCTAGAAAGCTTGTCGACGC
DNA 2: GCGTCGACAAGCTTTCTAGAAAAGTGTTCCCCTTTGAATTCGGATCCCTCGAGCG
binding result [3]: binds

B7: consensus mutant position 10 (dsDNA)
DNA 1: GATTTAACAGAA
DNA 2: TTCTGTTAAATC
binding signal [2]: 0.2 fraction of control

B8: genomic clone 25 site (dsDNA)
DNA 1: CGCTCGAGGGATCCGAATTCAATTCCCCGGATCATTGCAAACAATTTCTAGAAAGCTTGTCGACGC
DNA 2: GCGTCGACAAGCTTTCTAGAAATTGTTTGCAATGATCCGGGGAATTGAATTCGGATCCCTCGAGCG
binding result [3]: no binding

B9: consensus mutant position 11 (dsDNA)
DNA 1: GATTTAACATCA
DNA 2: TGATGTTAAATC
binding signal [2]: 0.2 fraction of control

B10: consensus mutant position 6 (dsDNA)
DNA 1: GATTTCACATAA
DNA 2: TTATGTGAAATC
binding signal [2]: 0.1 fraction of control

B11: hCdc5 consensus site (dsDNA)
DNA 1: GATTTAACATAA
DNA 2: TTATGTTAAATC
binding result [6]: no binding | Kd [7]: ~10 nM

B12: genomic clone 6/30 site (dsDNA)
DNA 1: CGCTCGAGGGATCCGAATTCAATAAAATCAAAATTTCTAGAAAGCTTGTCGACGC
DNA 2: GCGTCGACAAGCTTTCTAGAAATTTTGATTTTATTGAATTCGGATCCCTCGAGCG
binding result [8]: binds

B13: genomic clone 12 site 2 (dsDNA)
DNA 1: CGCTCGAGGGATCCGAATTCCCCCCCTTTAAACCAGCGTGGAGGGGGGTCTAGAAAGCTTGTCGACGC
DNA 2: GCGTCGACAAGCTTTCTAGACCCCCCTCCACGCTGGTTTAAAGGGGGGGAATTCGGATCCCTCGAGCG
binding result [3]: no binding

B14: new-palindrome mutant GATATAACATAT (dsDNA)
DNA 1: GATATAACATAT
DNA 2: ATATGTTATATC
binding result [5]: no binding

B15: consensus mutant position 3 (dsDNA)
DNA 1: GAGTTAACATAA
DNA 2: TTATGTTAACTC
binding signal [2]: 0.2 fraction of control
